Substrate in data set [1]: Nc1ncnc2c1ncn2[C@@H]1O[C@H](COP(=O)(O)O)[C@@H](OP(=O)(O)O)[C@H]1O
Kind of data set: Reverse-physiological reaction of βAST-IV (PAPS from PAP and p-nitrophenyl sulfate). Format: biochemical, rat. The conditions noted are these: other: 10 mM p-nitrophenyl sulfate, pH 7.0, 25° C., FIG. 6 legend. Here is the method: All capillary zone electrophoresis (CZE) was run in 0.23 M borate in running buffer at pH 7.8. The column was pre-washed with H2 O (1 min), 1 N NaOH (1 min), and running buffer (2 min). The sample was pressure injected at 20 psi sec and electrophoresis was run with 20.0 kV (- to +) at 20° C. with detection at 260 nm. CZE of 1 mM standards PAPS, PAP, and 3'-adenosine monophosphate (3'-AMP) were run to determine retention times. The reverse-physiological reaction assay mixture, a 500 μL solution containing 50 mM bis-tris propane-HCl buffer at pH 7.0, 1 mM 2-mercaptoethanol, 10 mM p-nitrophenyl sulfate, and 1 mM PAP at 25° C., was subjected to CZE prior to addition of enzyme (t=0). 5 mU βAST-IV was added and CZE was repeated 30 minutes after initiation. The reaction was then diluted 100-fold and CZE was run again. A 2.0 μL internal standard of 10 mM PAPS was added, and CZE was repeated.
βAST-IV activity in the reverse-physiological reaction was determined at 25° C. with a total volume of 500 μL. The reverse-physiological assay above was used with varying PAP concentration (15.6, 31.3, 62.5, 125, 250, 500 μM). Measurement of initial velocity was conducted over 10 seconds at 400 nm, and an extinction coefficient of 1064 was used to calculate p-nitrophenol concentration at pH 7.0. […]

Substrate in data set [2]: CC(=O)N[C@H]1[C@H](O[C@H]2[C@H](O)[C@@H](NC(C)=O)C(O)O[C@@H]2CO)O[C@H](CO)[C@@H](O[C@@H]2O[C@H](CO)[C@@H](O[C@@H]3O[C@H](CO)[C@@H](O)[C@H](O)[C@H]3NC(C)=O)[C@H](O)[C@H]2NC(C)=O)[C@@H]1O
Kind of data set: Continuous spectrophotometric coupled-enzyme assay of NodST with βAST-IV PAPS regeneration. The conditions noted are these: other: apparent value, coupled assay, 20 μM PAPS, pH 7.0. The format is biochemical, Rhizobium melioti.

Substrate in data set [3]: CC(=O)N[C@H]1[C@H](O[C@H]2[C@H](O)[C@@H](NC(C)=O)[C@H](O[C@H]3[C@H](O)[C@@H](NC(C)=O)C(O)O[C@@H]3CO)O[C@@H]2CO)O[C@H](CO)[C@@H](O[C@@H]2O[C@H](CO)[C@@H](O[C@@H]3O[C@H](CO)[C@@H](O)[C@H](O)[C@H]3NC(C)=O)[C@H](O)[C@H]2NC(C)=O)[C@@H]1O
The data set is described as above. Format: biochemical, Rhizobium melioti. The conditions noted are these: other: coupled assay; pH 7.0.

Substrate in data set [4]: CC(=O)N[C@H]1[C@H](O[C@H]2[C@H](O)[C@@H](NC(C)=O)C(O)O[C@@H]2CO)O[C@H](CO)[C@@H](O[C@@H]2O[C@H](CO)[C@@H](O)[C@H](O)[C@H]2NC(C)=O)[C@@H]1O
Kind of data set: purified protein, by the assay type. The conditions noted are these: pH 7.0.

Setting [5] is: other: apparent value, coupled assay, 20 μM PAPS.

A word on the kcat: it is the number of substrate molecules converted per active site and unit of time at saturation.

B1: βAST-IV (Rattus norvegicus) (protein)
chain: MEFSRPPLVHVKGIPLIKYFAETIGPLQNFTAWPDDLLISTYPKSGTTWMSEILDMIYQGGKLEKCGRAPIYARVPFLEFKCPGVPSGLETLEETPAPRLLKTHLPLSLLPQSLLDQKVKVIYIARNAKDVVVSYYNFYNMAKLHPDPGTWDSFLENFMDGEVSYGSWYQHVKEWWELRHTHPVLYLFYEDIKENPKREIKKILEFLGRSLPEETVDSIVHHTSFKKMKENCMTNYTTIPTEIMDHNVSPFMRKGTTGDWKNTFTVAQNERFDAHYAKTMTDCDFKFRCEL
notes: made in house; host or cells: E. coli BL21(DE3)
Take B1: the Km in data set [1] came to 26.4 ± 3.4 µM.

B2: NodST (Sinorhizobium meliloti 1021) (protein)
chain: MTHSTLPPQPFAILAMPRTGTHYLEELVNEHPNVLSNGELLNTYDTNWPDKERLLLSDRELLERAFLRYPPHSDKKVTHVGCKINEPQFQERPSFFAELTAWPGLKVILVIRRNTLESLRSFVQARQTRQWLKFKSDSSAPPPPVMLPFATCEAYFKAADDFHARVVYAFDSSRIRLIEYERLLRDPVPCVATVLDFLGAPALQLADRGILRRQETRPLDQTVRNFHELRVHFANGPYARFFELAND
B2: the Km was 20.4 ± 3.6 µM in data set [2]; 98.1 μμM in data set [3]; 243 µM in data set [4] (other: 20, 40 and 100 μM PAPS, all three within 10% variation, 3.0 mU NodST); 103 µM in data set [4] (setting [5]). Further, the kcat in data set [2] came to 0.328 ± 0.013 s⁻¹; in data set [4] (setting [5]) it was 0.458 s⁻¹.

The values are drawn from patent US6255088A, “Enzymatic sulfation of biomolecules” (The Scripps Research Institute, priority 1999, dated 2001).
